Reference: patent US20140005098A1

Columns and labels:
IGF-II = IGF-II (UniProt P01344); experiment: competition binding with 125I-IGF-I tracer and unlabelled IGF-II as competitor, Scatchard analysis
IGF-I = IGF-I (UniProt P05019); experiment: competition binding with 125I-IGF-I tracer and unlabelled IGF-I as competitor, Scatchard analysis
Sequence of IGF-I (P05019 49-118 limits assumed): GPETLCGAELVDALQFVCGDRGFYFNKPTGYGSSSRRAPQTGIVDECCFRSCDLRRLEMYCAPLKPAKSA

Sequence of IGF-II (P01344 25-91 limits assumed): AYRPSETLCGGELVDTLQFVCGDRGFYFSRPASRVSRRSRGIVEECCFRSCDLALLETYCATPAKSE

Ka (IGF-II): 3.14e+10 M⁻¹
Ka (IGF-I): 2.4e+10 M⁻¹
Substance: mini-IGFBP-3 (mutated recombinant IGFBP-3; H6-mini-IGFBP-3) (from UniProt P17936 28-121; P17936 207-291)
